2 substances from PMC10530332 can be followed below.

Assay [1] has as its target natural nurse shark UrIg (nurse shark (Ginglymostoma cirratum) (endogenous in nurse shark tissues)). Put plainly: non-reducing SDS-PAGE with western blot. In general terms: In western blotting, separated proteins are transferred to a membrane and probed.
Assay [2] has as its target recombinant UrIg, 4-domain molecule (V-C1-C2-C3) with C-terminal His tag (nurse shark (Ginglymostoma cirratum)). Put plainly: SEC.
Assay [3] has the same target. Put plainly: SDS-PAGE, non-reducing against reducing.

By stoichiometry N is commonly meant the number of molecules, sites or subunits per partner or assembly. As to “natural nurse shark UrIg (natural protein)”, in assay [1], the stoichiometry N amounted to 2.

Take “recombinant UrIg, 4-domain molecule (V-C1-C2-C3) with C-terminal His tag (natural protein)”: the stoichiometry N in assay [2] and in assay [3] was 2 in each case.
